For the test, the target named is HER2 (human (endogenous in BT-474, SK-BR-3, MDA-MB-361)) (UniProt P04626). Put plainly: flow cytometry on cells; cell-based saturation assay: 3x10^5 BT-474 cells with increasing concentration of DyLight-488-labeled Affibody in PBS with 2% FBS, on ice, one hour; non-specific binding subtracted; three independent experiments. Background: Flow cytometry measures light scatter and fluorescence of single cells or particles in a stream.

In turn, “Z_(HER2)-GS-Cys labeled with DyLight-488 (designed binder)” displayed a Kd of 3.66 nM.

Broadly, the Kd is the constant that tells how readily two partners part at equilibrium. Low readings indicate higher affinity, high ones lower affinity.

Source of the values: publication PMC3401287.
